Our source for the fold change of relative kon against wild-type IgG2a and Kd values is paper PMC5680793.

The target in test [1] is His-tagged mouse FcRn (mouse) (UniProt Q61559). Kind of test: BLI.
The target in test [2] is Mouse IgG2b (wild-type) (mouse). Kind of test: ITC.

Chain of UniProt Q61559 (Q61559 22-297, chain 1 of 2): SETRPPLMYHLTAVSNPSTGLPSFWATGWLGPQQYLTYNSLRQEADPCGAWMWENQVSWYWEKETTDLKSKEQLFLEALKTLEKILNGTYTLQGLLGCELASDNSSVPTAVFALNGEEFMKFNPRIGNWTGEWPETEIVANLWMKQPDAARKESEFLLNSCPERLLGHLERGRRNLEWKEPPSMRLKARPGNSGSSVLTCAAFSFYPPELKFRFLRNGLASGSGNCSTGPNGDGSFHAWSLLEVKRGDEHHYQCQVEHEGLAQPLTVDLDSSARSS
Chain of UniProt Q61559 (P01887 21-119, chain 2 of 2, further chain): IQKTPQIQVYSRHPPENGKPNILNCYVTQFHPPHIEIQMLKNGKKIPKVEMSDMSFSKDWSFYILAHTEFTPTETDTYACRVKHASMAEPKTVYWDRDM

Mouse IgG2a P307T, Q309L (antibody) returned a fold change of relative kon against wild-type IgG2a in test [1] of 2.7 fold.
As to Z34C peptide, in test [2], the Kd was 2600 nM.
